Consider 15 molecules from US20200071424A1.

To fix the notation:
B1: h12B10-S1 (antibody, V domains shown)
VH: EVQLVESGGGLVKPGGSLRLSCAASGFSLSTSGMGVGWVRQAPGKGLEWLAHIWWNDEKYYNPSLKSRFTISRDDSKNTLYLQMNSLKTEDTAVYYCARDHLAYYFDVWGQGTLVTVSS
VL: DIQMTQSPSSLSASVGDRVTITCKASQDINKYIAWYQQKPGKAPKLLMAYPFTLQPGVPSRFSGSGSGTDFTLTISSLQPEDFATYYCLQYDNLLWTFGQGTKVEIK
B2: h12B10-S3 (antibody, V domains shown)
VH: B1 VH with Y104F, Y105F, V108L
VL: B1 VL
B3: h12B10-S2 (antibody, V domains shown)
VH: B1 VH with Y104F, V108L
VL: B1 VL
B4: h16B3-S1 (antibody, V domains shown)
VH: EVQLVESGGGLVQPGGSLRLSCAASGFTFSGYTMSWVRQAPGKGLEWVSEISFARDRAFYPDTVKGRFTISRDNSKNTLYLQMNSLRAEDTAVYYCAKLGGRNHDYWYFDVWGQGTTVTVSS
VL: DIVMTQSPDSLAVSLGERATINCRASESVEYYGTSLMQWYQQKPGQPPKLLIYAASNVESGVPDRFSGSGSGTDFTLTISSLQAEDVAVYYCQQSWKVPFTFGQGTKLEIK
B5: h13B3-S1 (antibody, V domains shown)
VH: QVQLVQSGAEVKKPGASVKVSCKASGYTFTEYTMHWVRQAPGQGLEWMGSINPYYGGTSYNEKFKDRVTMTRDTSTSTVYMELSSLRSEDTAVYYCARYGNYVGYFDYWGQGTTVTVSS
VL: EIVLTQSPGTLSLSPGERATLSCRASSSVHYMYWYQQKPGQAPRLLIYYTSNLAPGIPDRFSGSGSGTDFTLTISRLEPEDFAVYYCQQFTSSPYTFGGGTKVEIK
B6: h13B3-S3 (antibody, V domains shown)
VH: B5 VH
VL: B5 VL with G9A, D59A, R76S
B7: h13B3-S2 (antibody, V domains shown)
VH: B5 VH with M70S, T76I, V79A, S85R, E89D, A92V
VL: B5 VL
B8: h13B3-S4 (antibody, V domains shown)
VH: B5 VH with M70S, T76I, V79A, S85R, E89D, A92V
VL: B5 VL with G9A, D59A, R76S
B9: h23H8-S1 (antibody, V domains shown)
VH: QVQLVQSGAEVKKPGASVKVSCKASGYTFTDNTIHWVRQAPGQGLEWMGHINPYYGGTNNNEKFKDRVTMTRDTSISTAYMELSRLRSDDTAVYYCARKGIYYSSPFDYWGQGTTVTVSS
VL: DIQMTQSPSSLSASVGDRVTITCRASQDINNYLNWYQQKPGKAPKLLIYYTSKLHSGVPSRFSGSGSGTDFTLTISSLQPEDFATYYCQQGNTLPFTFGQGTKLEIK
B10: h23H8-S2 (antibody, V domains shown)
VH: B9 VH
VL: B9 VL with Y49S, P80R
B11: h23H8-S3 (antibody, V domains shown)
VH: B9 VH
VL: B9 VL with Y49S
B12: h53A11-S1 (antibody, V domains shown)
VH: QVQLVQSGAEVKKPGASVKVSCKASGYTFTDYTMHWVRQAPGQRLEWMGGINPYYGGTTYNEKFKDRVTITRDTSASTAYMELSSLRSEDTAVYYCAKGDYYGGSYNYWGQGTTVTVSS
VL: EIVMTQSLATLSVSPGERATLSCRASQDISNSLHWYQQKPGQAPRLLIKYASQSISGIPARFSGSGSGTEFTLTISSLQSEDFAVYYCQQSNSWPYTFGQGTKLEIK
B13: h53A11-S3 (antibody, V domains shown)
VH: B12 VH
VL: B12 VL with L8P
B14: h53A11-S2 (antibody, V domains shown)
VH: B12 VH
VL: B12 VL with K49Y
B15: h12B10-S4 (antibody, V domains shown)
VH: B1 VH with T31S, A103V, Y104F, Y105F, V108L
VL: B1 VL

Substitutions are numbered along the chain they refer to.

The target of one assay is human-mouse chimeric EL (construct not specified). The assay can be described thus: Biacore; EL captured by anti-C2-tag Ab; bivalent fit. A general note: SPR reads the build-up and loss of mass on a sensor chip optically.
As a reminder, the koff is the first-order rate constant of dissociation. One may read the kon as the rate constant with which the complex forms. Turning to B1, the Kd was 1.9 nM, the koff was determined as 0.00035 s⁻¹ and the kon is 190000 M⁻¹ s⁻¹.

Molecule B2 returned a Kd of 0.11 nM, a koff of 1.7e-05 s⁻¹ and an on-rate (kon) of 150000 M⁻¹ s⁻¹.

B3 came in with a Kd of 0.14 nM, a koff of 3.3e-05 s⁻¹ and a kon of 240000 M⁻¹ s⁻¹.

A further assay concerns the target cynomolgus monkey EL (cynomolgus monkey). The description is as above.
In turn, B4 gave a Kd of 11 nM, a koff of 0.001 s⁻¹ and a kon of 94000 M⁻¹ s⁻¹.

As for B5, the Kd was 5.7 nM, the koff is 0.00043 s⁻¹ and the kon was found to be 76000 M⁻¹ s⁻¹.

Regarding B6, the Kd was found to be 13 nM, the koff stood at 0.00085 s⁻¹ and the on-rate (kon) was determined as 66000 M⁻¹ s⁻¹.

B7 had a Kd of 3.1 nM, a koff of 0.00014 s⁻¹ and a kon of 45000 M⁻¹ s⁻¹.

Consider B8, for which the Kd was 3.5 nM, the koff is 0.00038 s⁻¹ and the on-rate constant (kon) came to 110000 M⁻¹ s⁻¹.

For the molecule B9, the Kd was found to be 36 nM, the koff was found to be 0.0036 s⁻¹ and the kon is 100000 M⁻¹ s⁻¹.

In turn, B10 came in with a Kd of 4.3 nM, a koff of 0.00099 s⁻¹ and a kon of 230000 M⁻¹ s⁻¹.

The molecule B11 yielded a Kd of 0.41 nM, a koff of 0.00015 s⁻¹ and a kon of 370000 M⁻¹ s⁻¹.

With B12, the Kd turned out to be 2.3 nM, the off-rate (koff) is 0.0003 s⁻¹ and the kon was 130000 M⁻¹ s⁻¹.

In turn, B13 came in with a Kd of 5.8 nM, a koff of 0.0007 s⁻¹ and a kon of 120000 M⁻¹ s⁻¹.

B14 came in with a Kd of 4.3 nM, a koff of 0.00065 s⁻¹ and a kon of 150000 M⁻¹ s⁻¹.

The target of a further assay is human-mouse chimeric EL (construct not specified). As to the kind of experiment: cell-based or functional assay.
As for B1, the Neutralizing activity IC50 is 6 nM.

B2 came in with a Neutralizing activity IC50 of 4.9 nM.

Take B3: the Neutralizing activity IC50 turned out to be 5.4 nM.

As to B15, the Neutralizing activity IC50 was determined as 6.2 nM.

A further assay addresses cynomolgus monkey EL (cynomolgus monkey). The assay can be described thus: cell-based or functional assay.
B4: the Neutralizing activity IC50 stood at 3.6 nM.

For the molecule B5, the Neutralizing activity IC50 turned out to be 2.4 nM.

B6 gave a Neutralizing activity IC50 of 4.1 nM.

B7 came in with a Neutralizing activity IC50 of 3.6 nM.

Consider B8, for which the Neutralizing activity IC50 worked out at 2.9 nM.

Consider B9, for which the Neutralizing activity IC50 is 26 nM.

As for B10, the Neutralizing activity IC50 was found to be 1.7 nM.

Take B11: the Neutralizing activity IC50 is 1.8 nM.

In the case of B12, the Neutralizing activity IC50 came to 1.7 nM.

As for B13, the Neutralizing activity IC50 was 1.2 nM.

With B14, the Neutralizing activity IC50 was found to be 1.8 nM.
